Laboratory results: patent US20080267971A1 (published 2008)
Residue numbers refer to the chain shown, from its start.

T1: human Ang-2 H375Q (human, UniProt O15123 19-496)
T1 sequence: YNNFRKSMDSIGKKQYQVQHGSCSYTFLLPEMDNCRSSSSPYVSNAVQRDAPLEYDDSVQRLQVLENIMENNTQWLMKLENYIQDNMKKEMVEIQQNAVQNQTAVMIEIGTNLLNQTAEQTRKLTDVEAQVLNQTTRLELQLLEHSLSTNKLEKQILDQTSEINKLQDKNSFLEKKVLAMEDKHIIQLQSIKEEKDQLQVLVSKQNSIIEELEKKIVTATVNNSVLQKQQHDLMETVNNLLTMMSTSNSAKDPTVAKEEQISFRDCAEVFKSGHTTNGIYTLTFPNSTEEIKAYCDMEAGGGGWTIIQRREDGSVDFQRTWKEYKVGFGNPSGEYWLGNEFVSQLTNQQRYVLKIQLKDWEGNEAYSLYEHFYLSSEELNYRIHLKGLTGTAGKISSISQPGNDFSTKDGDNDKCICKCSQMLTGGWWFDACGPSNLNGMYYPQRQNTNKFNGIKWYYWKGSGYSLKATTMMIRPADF

T2: human Angiopoietin-1 (human, UniProt Q15389 20-498, limits assumed)
T2 construct: Bought recombinant protein (R&D Systems 293-AN-025/CF) or supernatant of transfected 293F cells; also called Ang-1; recombinant Ang-1
T2 sequence: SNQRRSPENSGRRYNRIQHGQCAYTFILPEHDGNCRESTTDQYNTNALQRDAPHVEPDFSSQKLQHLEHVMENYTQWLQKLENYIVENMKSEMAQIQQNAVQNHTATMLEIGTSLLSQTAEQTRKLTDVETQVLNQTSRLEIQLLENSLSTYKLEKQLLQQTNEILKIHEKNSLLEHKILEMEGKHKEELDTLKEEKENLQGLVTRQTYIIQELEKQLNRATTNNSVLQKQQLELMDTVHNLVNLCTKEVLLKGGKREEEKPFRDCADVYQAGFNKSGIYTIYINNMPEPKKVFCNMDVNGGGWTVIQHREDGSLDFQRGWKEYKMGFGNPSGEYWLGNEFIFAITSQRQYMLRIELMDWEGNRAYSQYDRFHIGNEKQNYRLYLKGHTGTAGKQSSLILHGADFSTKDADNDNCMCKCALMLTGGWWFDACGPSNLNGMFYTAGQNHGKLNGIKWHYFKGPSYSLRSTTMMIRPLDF

T3: human Angiopoietin-2 (human, UniProt O15123 19-496)
T3 construct: Mostly bought recombinant protein (R&D Systems 623-AM/CF, 623-AN; biotinylated BT623) or supernatant of transfected 293F cells; also called Ang-2; rhAng-2
T3 sequence: T1 sequence with Q356H

T4: mouse Angiopoietin-2 (mouse, UniProt O35608 19-496)
T4 construct: Used as conditioned medium of transfectants; also called mAng-2; mouse Ang-2
T4 sequence: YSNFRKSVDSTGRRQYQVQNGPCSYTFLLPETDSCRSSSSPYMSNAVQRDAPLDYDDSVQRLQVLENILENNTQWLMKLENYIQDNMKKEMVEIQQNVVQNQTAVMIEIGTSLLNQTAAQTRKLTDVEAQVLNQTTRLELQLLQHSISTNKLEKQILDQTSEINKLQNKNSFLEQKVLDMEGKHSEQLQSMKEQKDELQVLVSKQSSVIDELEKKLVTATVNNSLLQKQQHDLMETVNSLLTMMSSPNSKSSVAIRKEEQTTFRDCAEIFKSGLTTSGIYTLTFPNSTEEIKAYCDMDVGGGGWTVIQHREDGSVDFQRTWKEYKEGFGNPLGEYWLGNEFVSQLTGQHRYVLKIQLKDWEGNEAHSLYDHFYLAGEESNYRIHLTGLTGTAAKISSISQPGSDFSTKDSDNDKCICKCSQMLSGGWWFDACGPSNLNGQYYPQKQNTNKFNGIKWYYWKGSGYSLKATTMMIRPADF

B1: mAb 5.35.1 (antibody, V domains shown)
VH: EVQLVESGGGVVRPGGSLRLSCTTSGFTFDDYGMSWVRQAPGKGLEWVSGINWNGGSTVYADSVKGRFTISRDSAKNSLYLQMNSLRAEDTALYHCARNKQWLWYFDLWGRGTLVTVSS
VL: EIVMTQSPATLSVSPGERATLSCRASQSVSSNLAWYQQKPGQAPRLLIYGASTRATGIPARFSGSGSGTEFTLTISSLQSEDFAVYYCEQYNNWPLTFGGGTKVEIKR
notes: Human hybridoma IgG (XenoMouse); also called x5.35
B2: mAb 5.103.1 (antibody, V domains shown)
VH: QVQLVQSGAEVKKPGASVKVSCKASGYTFTGYYLYWVPQAPGQGLEWMGWISPNSGGTNYAQKFQGRVTMTRDTSISTAYMELSRLRSDDTAVYYCARDQVIAVAGPFDYWAQGTLVTVSS
VL: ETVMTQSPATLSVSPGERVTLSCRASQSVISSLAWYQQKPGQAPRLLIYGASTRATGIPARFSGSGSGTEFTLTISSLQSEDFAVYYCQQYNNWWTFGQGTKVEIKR
notes: Human hybridoma IgG (XenoMouse); also called 5.103.3; x5.103
B3: mAb 5.108.1 (antibody, V domains shown)
VH: QVQLVESGGGVVQPGRSLRLSCAASGFTFSSYGMHWVRQAPGKGLEWVAVIWYDGSNKYYADSVKGRFTISRDNSKNTLYLQMNSLRAEDTAMYYCARELALWGQGTLVTVSS
VL: EIVMTQSPATLSVSPGERATLSCRASQSVSSYLAWYQQKPGQAPRLLIYGAFTRATGIPARFRGSGSGPEFTLTISSLQSEDFAVYYCQQYSHWWTFGQGTKVEIKR
notes: Human hybridoma IgG (XenoMouse); also called x5.108
B4: mAb 5.40.2 (antibody, V domains shown)
VH: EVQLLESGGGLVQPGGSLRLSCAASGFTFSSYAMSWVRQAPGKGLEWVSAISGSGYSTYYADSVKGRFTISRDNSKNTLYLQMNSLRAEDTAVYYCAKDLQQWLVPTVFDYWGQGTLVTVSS
VL: B3 VL with Y32N, A34V, G50D, A51S, F52S, A60V, R63S, P69T, S92N
notes: Human hybridoma IgG (XenoMouse); also called x5.40
B5: mAb 5.39.1 (antibody, V domains shown)
VH: QVQLVQSGAEVTKPGASVKVSCKASGYTFTAYHMYWVRQAPGQGLEWMGWINPNSGGTNYAQKFQGRVTMTRDTSISTAYMELSRLRSDDSPVYYCARDQGIAAAGPFDYWGQGTLVTVSS
VL: B3 VL with E17D, Y32N, L33F, A51S, F52S, R63S, P69T, S92H, H93Y, I105F
notes: Human hybridoma IgG (XenoMouse); also called x5.39

Molecular target: T1, human Ang-2 H375Q
Assay: ELISA

% of binding to human Ang-2 | Binder
100% | B1
100% | B2
100% | B3
100% | B4
100% | B5

Molecular target: T2, human Angiopoietin-1
Assay: capture ELISA
Protocol: The binding of the top 27 human monoclonal antibodies was detected with a HRP-conjugated goat anti-human antibody, followed by colorimetric horseradish peroxidase substrate (Enhanced K-Blue TMB substrate Neogen Corporation). The absorbance of each well of the ELISA plates was measured at 450 nm on a microplate autoreader.

binding result | Binder
no binding | B1
no binding | B2
no binding | B3
no binding | B4
no binding | B5

Molecular target: T3, human Angiopoietin-2
Assay: Biacore, mAb captured
Protocol: The label-free surface plasmon resonance (SPR), or Biacore, was utilized to measure the antibody affinity to the antigen. For this purpose, a high-density goat anti-human antibody surface over a CM5 Biacore chip was prepared using routine amine coupling. All the purified mAbs were diluted to approximately 8 μg/ml in HBS-P running buffer containing 100 μg/ml BSA and 10 mg/mL carboxymethyldextran. Each mAb was captured on a separate surface using a 42-second contact time, and a 5-minute wash for stabilization of the mAb baseline.
Data were fit globally to a 1:1 interaction model to determine the binding kinetics.

Kd | kon | Binder
≤ 0.029 nM | 340000 M⁻¹ s⁻¹ | B1
≤ 0.045 nM | 220000 M⁻¹ s⁻¹ | B2
≤ 0.031 nM | 320000 M⁻¹ s⁻¹ | B3
≤ 0.129 nM | 78000 M⁻¹ s⁻¹ | B4
≤ 0.043 nM | 230000 M⁻¹ s⁻¹ | B5

Molecular target: T4, mouse Angiopoietin-2
Assay: ELISA, recombinant mouse Ang-2

binding result | Binder
no binding | B1
no binding | B2
no binding | B3
no binding | B4
no binding | B5
